The source of these data is US20230235333, “APTAMER FOR IL-21 AND USE THEREOF” (RIBOMIC INC, published 2023).

A word on the IC50: it is the concentration needed to halve the response being measured. Lower therefore signals inhibition by little substance.

Holding throughout (details): tags: PeproTech
Data set [1] concerns the target T1, IL-21 (interleukin-21) (Homo sapiens, UniProt Q9HBE4 SEQ:25-162). As to the kind of experiment: cell_activity; 10 nM aptamer. As for the experimental part: (§1) After overnight culture, the same medium was used to seed 2×10⁴ cells per well for testing. Human IL-21 alone or a mixed solution of human IL-21 and aptamer was added thereto and the cells were cultured for 16 hr. The final concentration of human IL-21 was adjusted to 0.05 nM. After 16 hr, the culture supernatant was collected and IFN-γ contained in the supernatant was quantified by sandwich ELISA method. An ELISA Kit manufactured by R&D Systems or Diaclone was used for quantification. After quantification, the inhibitory rate was calculated using the following formula.
Whether these aptamers bind to human IL-21 and inhibit the function thereof was evaluated by a method similar to that in Example 1. Aptamers were obtained by transcription using double-stranded DNA as a template. The evaluation of inhibition in the cell assay system was performed at a nucleic acid final concentration of 10 nM. […] In the Table, “n.d.” indicates unmeasured.

The target in data set [2] is T1, IL-21 (interleukin-21). As to the kind of experiment: cell_activity; 1 nM aptamer; 100.0 at 0.2 nM. As to the method: as §1
Whether these aptamers bind to human IL-21 and inhibit the function thereof was evaluated by preparing the aptamers by chemical synthesis and using a method similar to that in Example 1. The evaluation of inhibition in the cell assay system was performed at nucleic acid final concentrations of 1 nM and 0.2 nM. […] In the Table, “n.d.” indicates unmeasured.

For data set [3], the target named is T1, IL-21 (interleukin-21). Description: cell_activity; 1 nM aptamer; 100.0% at 0.1 nM. As to the method:
as §1
Whether these aptamers bind to human IL-21 and inhibit the function thereof was evaluated by preparing the aptamers by chemical synthesis and using a method similar to that in Example 1. The evaluation of inhibition in the cell assay system was performed at nucleic acid final concentrations of 1 nM and 0.1 nM. […] In the Table, “n.d.” indicates unmeasured.

The target in data set [4] is T1, IL-21 (interleukin-21). Description: cell_activity; IFN-gamma secretion from NK92 cells stimulated with human IL-21. As to the method:
as §1
Whether these aptamers bind to human IL-21 and inhibit the function thereof was evaluated by preparing the aptamers by chemical synthesis and using a method similar to that in Example 1. […] The evaluation of inhibition in the cell assay system was performed at nucleic acid final concentrations of 1 nM and 0.2 nM. In addition, in a cell assay system, the aptamer concentration (IC₅₀) at which IFN-γ secretion was inhibited by 50% by IL-21 stimulation was determined. In the Table, “n.d.” indicates unmeasured.

In data set [5] the target is T1, IL-21 (interleukin-21). Description: cell_activity; 10 nM aptamer, scored −. As for the experimental part: as §1
Whether these aptamers bind to human IL-21 and inhibit the function thereof was evaluated by a method similar to that in Example 1. Aptamers were obtained by transcription using double-stranded DNA as a template. […] In addition, “n.d.” indicates unmeasured.

For data set [6], the target named is T1, IL-21 (interleukin-21). Description: SPR; negative control, no binding.

Numbering of substitutions follows the chain as printed.

T1 sequence (Q9HBE4 25-162): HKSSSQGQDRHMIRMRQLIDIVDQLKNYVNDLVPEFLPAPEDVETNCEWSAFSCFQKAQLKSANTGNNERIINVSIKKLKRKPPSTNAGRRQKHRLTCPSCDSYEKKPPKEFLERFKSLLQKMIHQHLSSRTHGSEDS

B1: SEQ39 (ssRNA)
RNA: GGACCGUCAACACGCGACUACUCGUGAUUGCCCGUCC
modifications: 2'-F all pyrimidines
In data set [1], B1 returned an activity of 56.1 % inhibition.

B2: SEQ22(2) (ssRNA)
RNA: B1 RNA with G6U, A17G
modifications: as SEQ22(1) plus 2'-OMe C4,U28,U29; 3'-idT
Take B2: in data set [2], the activity amounted to 100 % inhibition.

B3: SEQ43 (ssRNA)
RNA: B1 RNA with G6U, C32A
modifications: 2'-F all pyrimidines
B3: the activity in data set [1] was 43.7 % inhibition.

B4: SEQ22(1) (ssRNA)
RNA: B1 RNA with G6U, A17G
modifications: 2'-OMe 1-3,9-14,20,21,24-27,30-32,34-37; 2'-F 4-8,15,18,19,22,23,28,29,33; 2'-OH G16,G17; 3'-idT
In turn, B4 registered an activity in data set [2] of 100 % inhibition.

B5: SEQ22(15) (ssRNA)
RNA: B1 RNA with G6U, A17G
modifications: as SEQ22(2) plus 5'-PEG 40 kDa; 3'-idT
As for B5, the activity in data set [2] amounted to 100 % inhibition.

B6: SEQ40 (ssRNA)
RNA: B1 RNA with G6U, U7C
modifications: 2'-F all pyrimidines
In turn, B6 gave an activity in data set [1] of 42 % inhibition.

B7: SEQ41 (ssRNA)
RNA: B1 RNA with G6U, U19G
modifications: 2'-F all pyrimidines
B7 registered an activity in data set [1] of 32.4 % inhibition.

B8: SEQ42 (ssRNA)
RNA: B1 RNA with G6U, U22C
modifications: 2'-F all pyrimidines
Molecule B8 returned an activity in data set [1] of 39 % inhibition.

B9: SEQ38(14) (ssRNA)
RNA: GACCUUCAACCCGCGGCUACUCGGGAUUGCCCGUC
modifications: as SEQ38(1) with PS after G15
Turning to B9, the activity in data set [3] stood at 100 % inhibition.

B10: SEQ38(18) (ssRNA)
RNA: B9 RNA
modifications: as SEQ38(1) with PS after G15,G16
For the molecule B10, in data set [3], the activity worked out at 100 % inhibition.

B11: SEQ38(1) (ssRNA)
RNA: B9 RNA
modifications: as SEQ38 plus 5' 40 kDa PEG
With B11, in data set [4], the IC50 was determined as 0.02 nM.

B12: SEQ38(15) (ssRNA)
RNA: B9 RNA
modifications: as SEQ38(1) with PS after G16
B12: in data set [3], the activity worked out at 100 % inhibition.

B13: SEQ14 (ssRNA)
RNA: GGACCUUCAACACGCGAUACUCGUGAUUGCCCGUCC
modifications: 2'-F pyrimidines
For B13, the activity in data set [5] was 13.3 % inhibition.

B14: SEQ16 (ssRNA)
RNA: B13 RNA with U18C, A19U
modifications: 2'-F pyrimidines
Consider B14, for which, in data set [5], the activity was found to be 10.7 % inhibition.

B15: SEQ15 (ssRNA)
RNA: B13 RNA with U18C
modifications: 2'-F pyrimidines
B15 returned an activity in data set [5] of 10.7 % inhibition.

B16: SEQ49 negative control 51mer (ssRNA)
RNA: GGGAAGCUCCGUCGAGCUUUCCUGCAUAAGCUGUAUUGCAGCCAGCAUUUA
Consider B16, for which the binding result in data set [6] is recorded as “no binding”.
